These results are taken from patent US20160075789A1.

Some results are limits rather than exact numbers.

Experiment [1] has as its target Fc-EDA1 (human). In words: sandwich ELISA, EctoD2 at capture, biotinylated EctoD3 at revelation (FIG. 24). In general terms: An ELISA detects its analyte on a solid surface through an enzyme-linked reagent.
Experiment [2] concerns the target Fc-EDA1 (human). The experiment can be described thus: sandwich ELISA of Fc-EDA1 pre-incubated in buffer or mouse serum (FIG. 26).
Experiment [3] has as its target Fc-EDA1 (human). In words: cell-based or functional assay.

Chain of Fc-EDA1 (human) (Q92838 249-385): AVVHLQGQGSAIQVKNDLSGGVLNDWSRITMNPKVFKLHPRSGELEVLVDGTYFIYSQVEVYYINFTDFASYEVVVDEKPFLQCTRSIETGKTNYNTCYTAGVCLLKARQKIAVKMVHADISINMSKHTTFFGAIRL

B1: mAbEDA1-EctoD3 (antibody, mouse IgG1, V domains shown)
VH: QVQLHQSGAELARPGASVKLSCKASGYTFTSYGISWVKQRTGQGLEWIGEVYPRSGDTYYHDYFEGKATLTADKSSSTAYMELRSLTSEDSAVYFCARGDYADVWGTGTTVTVSS
VL: DIVLTQSPASLAVSLGQRATISCRASKSVSTFGNSYMLWYQQKPGQPPKLLIYLASNLESGVPARFSGSGSGTDFTLNIHPVEEEDAATYYCQNSRELPYTFGGGTKLEIKR
Take B1: the concentration of Fc-EDA1 readily detected with Fc-EDA1 (human) [1] was less than 1 ng/mL. Further, in the experiment with Fc-EDA1 (human) [2], the most sensitive detection of Fc-EDA1 was less than 1 ng/mL.

B2: mAbEDA1-EctoD2 (antibody, mouse IgG1, V domains shown)
VH: EVMLEESGGGLVKSGGSLKLSCAASGFTFSTYAMSWVRQTPGKRLEWVAAISDGGDNTYYLDSVKGRFTISRDNAKNTLYLQMSSLRSEDSALYYCARQYNDYEAMDYWGQGTSLTVSS
VL: DIVLTQSPTSLAVSLGQRATISCRASESVDSYGSSFMHWYQQKPGQPPKLLFYRASNLESGIPARFSGSGSRTDFTLTINPVEADDVATYYCQQSNEDPFTFGSGTKLEIKR
On to B2, for which, in the experiment with Fc-EDA1 (human) [1], the concentration of Fc-EDA1 readily detected is less than 1 ng/mL. In the experiment with Fc-EDA1 (human) [3], this molecule showed a cytotoxicity assay using EDAR-Fas Jurkat cells (PMS/MTS viability): antibody concentration at which 40 ng/mL of Fc-EDA1 is completely inhibited of 125 ng/mL and a cytotoxicity assay using EDAR-Fas Jurkat cells: stoichiometry of inhibition (antibodies per Fc-EDA1) of 5. Also, the most sensitive detection of Fc-EDA1 with Fc-EDA1 (human) [2] is less than 1 ng/mL.
